Entries after “also recorded” stand apart in the source; their conditions may differ.
How the values were obtained:
[1] = test system: callose accumulation of Arabidopsis; test: Intensity of immune responses of various fusion proteins: callose fluorescence in Arabidopsis leaves quantified by ImageJ; type: in vivo; conditions: 100 nmol final concentration
Experimental: Computation was conducted through image processing software ImageJ according to obtained callose accumulation fluorescence images, and the immune activation ability of the fusion proteins to the plants was quantified by virtue of the fluorescence intensity. Computing methods were as follows:
Measured IntDen=Integrated Density=Integrated Optical Density;
Measured Area=Image Area;
MD(mean optical density)=IntDen/Area.

[2] = test system: Tobacco mosaic virus (TMV); test: Resistance of tobacco plants to Tobacco mosaic virus (disease grading, disease index, control effect)
Experimental: The experiment was divided into an experimental group and a control group (with 20 lines of tobacco plants in each group). After the experimental group was injected with a recombinant protein, viruses were inoculated to the experimental group; and after the control group was injected with the sterile water, the viruses were inoculated to the control group. It was inoculated through the following steps:
(1) Fresh leaves infected with TMV were added to a small amount of sterilized phosphate buffer (1:200) and were ground in a mortar and filtered with sterilized gauze to remove the residues of the infected leaves. The above fresh juice was prepared as an inoculum and a concentration of the inoculum of the TMV was adjusted to obtain an aqueous solution of TMV.
(2) When tobacco seedlings were in the 4-5 true leaves period, fully expanded true leaves were selected; a suitable amount of quartz sands were uniformly scattered on the leaf surfaces; and the leaf surfaces were slightly rubbed by an absorbent ball dipped with the aqueous solution of TMV for 1-2 times and then immediately washed with water.
(3) After inoculation for 21 days, the morbidity of tobacco plants was observed. With each plant as a unit for assessment, the grading standard was as follows:
Grade 0: freedom from disease
Grade 3: newborn leaf had yellow-green stripes parallel to the leaf vein with slightly curling;
Grade 7: plant was dwarfed, leaf had yellowish-white strips with curling, and newborn leaves were twisted and prolapsed and could not be normally expanded; and
Grade 9: plant was dwarfed seriously and subjected to chlorina or died.
A disease index and the control effect were computed with the following methods:
Disease index=[Σ(number of infected plants in various grades×relative grade value)/(total number of plants investigated×9)]×100;
Control effect (%)=[(control disease index-treatment disease index)/control disease index]×100.

[3] = test system: callose accumulation of Arabidopsis; test: Callose accumulation in Arabidopsis leaves infiltrated with fusion protein or PAMP polypeptide (aniline blue staining); type: in vivo
Experimental: In immune responses of plant cells, callose might accumulate. The callose might enhance the mechanical strength of plant cell walls and block channels through which pathogens spread between the cells, thereby limiting invasion of pathogenic microorganisms. With a model plant Arabidopsis as a material and callose accumulation as immune index, the immune activation abilities of different concentrations of fusion proteins His-MP7 were analyzed and were compared to that of a single PAMP polypeptide. A specific experimental operation was as follows:
Final concentrations of the fusion protein His-MP7 and a polypeptide flg22 were adjusted to be 1 μM, 100 nM and 10 nM respectively, with water being served as a control. Four-week old Arabidopsis leaves were infiltrated with an injection syringe permeation method for 12 h, the treated leaves were collected and put in a 6-well plate, and a suitable amount of washing buffer was added for 4 h incubation. The washing buffer was substituted by an aniline blue staining solution with a final concentration of 0.1 mg/mL for staining at a room temperature in the dark for 1 h, and the callose accumulation was observed using a 10 times objective lens of a fluorescence microscope. Each treatment contained three biological replicates with three repeated experiments.
A final concentration of the fusion protein His-MP7 and each of polypeptides flg22, nlp20, elf18, pip1, pep1, csp22 and flgII-28 was adjusted to be 100 nM, with csp22 and flgII-28 being served as negative controls. The four-week old Arabidopsis leaves were infiltrated with an injection syringe permeation method; and a sample treatment method was the same as mentioned above.

[4] = test system: oxidative burst immune response in corn leaves; test: Reactive oxygen species / oxidative burst in corn leaves (DAB staining); type: in vivo; conditions: 100 nM, corn leaves soaked 48 h, FIG. 4
Experimental: Oxidative burst was considered as one of earliest responses of plants to pathogenic microorganisms and played an important role in defense responses of the plants. […] After the plants were infected by the pathogenic microorganisms, the reactive oxygen species could be produced and accumulate, and oxidative burst could be caused. With plant corns as a material and the reactive oxygen species as an immune index, the immune activation ability of 100 nM fusion protein His-MP7 was analyzed. A specific experimental operation was as follows:
Two-week old corn leaves were taken, the intermediate portion of each leaf was taken, shorn with a length of 5 cm and immersed into 1 μg/mL auxin 6BA solution. It was added with the fusion protein His-MP7 with a final concentration of 100 nM, with an aqueous solution of auxin 6BA being served as a blank control. The intermediate portions were soaked for 48 h, stained for 12 h using 1 mg/mL DAB solution, eluted for 12 h by a washing buffer (ethyl alcohol:acetic acid:glycerin=3:1:1) and observed after being placed for 30 min.

[5] = test system: Pseudomonas syringae DC3000; test: Resistance of Arabidopsis to DC3000 pathogenic bacteria (colony growth in injected leaves)
Experimental: (1) A strain DC3000 of Pseudomonas syringae was inoculated to 20 mL of SOC+str (streptomycin) liquid medium for overnight culture for 14-16 h at 28° C., OD600 was determined, and a product was subjected to gradient dilution until OD600 was 0.00005 to obtain a bacterial solution.
(2) The fusion protein His-MP7 was added in the bacterial solution until a final concentration was 100 nM, and a bacterial solution, to which water was added, was served as a control. Meanwhile, four-week old healthy Arabidopsis leaves were injected with the bacterial solution and were sampled at Day 0 (four leaves from one plant) and Day 3 (five plants, two leaves from each plant) respectively. Each leaf was punched by a puncher. The punched small discs were taken; 500 μL of 10 mM MgCl2 was added at Day 0; the small discs were ground in a 1.5 mL EP tube; and 50 μL of each of four samples in the same treatment was spotted on one SOC+str (streptomycin) solid plate (the plate required to be blow-dried, and then the shape of each spotted sample could be kept) and cultured for 16-24 h at 28° C. Samples were photographed and observed for statistics of colony growth.
(3) At Day 3, the two leaves on each plant of the five plants were punched to take small discs similarly; 250 μL of 10 mM MgCl2 was added; and the small discs were ground in the 1.5 mL EP tube and diluted by MgCl2 stepwise until 1×10^−5.

[6] = test system: Magaporthe grisea; type: in vivo; conditions: rice leaves, 100 nM
[7] = 21 days after TMV inoculation, 20 plants per group

Molecule	MD (mean optical density = IntDen/Area) of callose fluorescence ([1]; H2O 0.002-0.003)	Immune activation ([1]; H2O: No)	Number of Infect Tobacco Plants, 0 grade [2, 7]	Number of Infect Tobacco Plants, 1 grade [2, 7]	Number of Infect Tobacco Plants, 3 grade [2, 7]	Number of Infect Tobacco Plants, 5 grade [2, 7]	Number of Infect Tobacco Plants, 7 grade [2, 7]	Number of Infect Tobacco Plants, 9 grade [2, 7]	Control effect ([2]; tobacco, TMV, 21 days, versus H2O control)	Disease index ([2]; tobacco, TMV, 21 days, H2O control 78.9)	intensity of callose accumulation compared with flg22 ([3]; 100 nM His-MP7 versus 1 μM flg22, FIG. 2)	callose accumulation of Arabidopsis ([3]; 100 nM, leaf infiltration 12 h, FIG. 2)	immune activity effect compared with single PAMP polypeptides (callose accumulation) ([3]; all at 100 nM, flg22, nlp20, elf18, pip1, pep1, csp22, flgII-28, FIG. 3)	induction of oxidative burst immune response [4]	bacterium growth index ([5]; 100 nM in bacterial solution, Arabidopsis leaves, FIG. 5, control 5.38)	reduction of growth amount of Pseudomonas syringae DC3000 ([5]; 100 nM, versus water control)	scab area percentage ([6]; 3-4 days, untreated 11.6%)	infection rate of Magaporthe grisea lowered by ([6]; versus untreated)
TP10	0.378	Yes																
His-MP7: heptapeptide fusion protein, SEQ ID NO: 15: elf18, csp22, flg22, flgII-28, nlp20, pep1, pip1 in sequence, linkers GAG and AGA, HIS tag (protein, his-MP7) MGSSHHHHHHSSGLVPRGSHMASMTGGQQMGRDPNSSSVDKLSKEKFERTKPHVNVGTIGGAGAVGTVKWFNAEKGFGFITPDDGAGAQRLSTGSRINSAKDDAAGLQIAGAGESTNILQRMRELAVQSRNDSNSATDREAGAGAIMYSWYFPKDSPVTGLGHRAGAATKVKAKQRGKEKVSSGRPGQHNAGARLASGPSPRGRGH			1 plant	11 plant	6 plant	2 plant	0 plant	0 plant	72.5%	21.7	equivalent to that induced by 1 μM PAMP polypeptide flg22	obviously induced	superior to those of all the PAMP polypeptides; also recorded: superior to that of a single PAMP polypeptide	could induce the oxidative burst immune response	4.05	≥ 10	1.9%	83.6%

Source: patent US20230036503A1, “Fusion Protein, Amino Acid Sequence Thereof, Coding Nucleotide Sequence Thereof, Preparation Method Thereof and Use Thereof” (priority 2019, published 2023)
